The values below come from US7265263B1, “Potato transcription factors, methods of use thereof, and a method for enhancing tuber development” (Iowa State University Research Foundation, Inc., priority 2002, dated 2007).

In one assay the test system is ga20ox1 promoter. The experiment in a line: Transcription assay, GUS reporter driven by ga20ox1 promoter in tobacco protoplasts. It counts as cell-based, potato. The text has this: The cauliflower mosaic virus (CaMV) 35S promoter in pBI221 (Clontech, Palo Alto, Calif.) was replaced by an enhancer fragment (-832 to -50) of the 35S promoter plus 980 bp of the ga20ox1 promoter to generate the pGAOP::β-glucuronidase (GUS) reporter construct. With this construct, the reporter GUS transcription level is augmented but its transcription may still be affected by the ga20ox1 promoter. A CaMV 35S promoter-driven luciferase (LUC) construct 35S-LUC (obtained from Dr. Takahashi, Dept. of Biological Sciences, Graduate School of Science, Univ. of Tokyo, Japan) was used as an internal control. Effector constructs were also generated by using pBI221 vector as a backbone, with the GUS gene replaced by the full-length cDNAs of either StBEL-05 or POTH1, downstream of the CaMV 35S promoter. Truncated cDNAs that encode the N-terminal protein-binding domains of StBEL-05 or POTH1 were used to generate the dominant negative constructs, StBEL5ΔC295 and POTH1ΔC122, respectively. The reporter construct with the mutated promoter was generated by site-directed PCR mutagenesis with oligos 5′-CTATTTGACTTC*ACACGGTTATTT-3′ (SEQ ID NO:23) and 5′-AAATAACCGTGTG*AAGTCAAATAG-3′ (SEQ ID NO:24).
Fully expanded leaves from three- to four-week-old tobacco plants were excised and placed in K3 basal media (Kao et al., “Nutritional Requirements for Growth of Vicia hajastana Cells and Protoplasts at a Very Low Density in Liquid Media,” Planta 126:105-110 (1975), which is hereby incorporated by reference in its entirety) supplemented with 0.4 M sucrose, 0.25% (w-v) cellulases (Karlan Research Products, Santa Rosa, CA), and 0.05% (w-v) macerases (Calbiochem, La Jolla, Calif.) and incubated for overnight at 28° C. After incubation, the liberated protoplasts were filtered through sterile cheesecloth into a Babcock bottle, and centrifuged for 10 minutes at 1000 rpm. Protoplasts were collected from the bottleneck area and washed once in K3 media with 0.4 M sucrose and resuspended in K3 media containing 0.4 M glucose to a final concentration of 4×10^6 protoplasts per milliliter. […]
Luciferase assays were performed by injecting 100-μL luciferase substrate (Promega, Madison, Wis.) into 20 μL of extract and measuring the emitted photons for 15 seconds in a TD-20 luminometer (Turner Designs, Sunnyvale, Calif.). […] A fluorescence multiwell plate reader, Fluoroskan II (MTX labs, Vienna, Va.), was used to measure GUS activity at 365 nm (excitation) and 455 nm (emission). Each sample was measured three times for both LUC and GUS activity. Relative GUS-LUC activity was calculated by dividing the ratio of GUS activity to LUC activity from different effectors with the ratio from reporter plasmid alone. Relative activities calculated from three transfection replications were presented as a mean±SE.

The subject of another assay is POTH1. As to the kind of experiment: Yeast two-hybrid interaction with POTH1. The settings on record: nutritional selection and lacZ activation, yeast AH109. It counts as binding, Solanum tuberosum. The text has this: The Matchmaker two-hybrid system (Clontech, Calif.) was used for the yeast two-hybrid screen. Yeast transformation and plasmid rescue into DH5-α E. coli cells were according to the manufacturer's instructions. Full-length POTH1 was cloned into the pBridge (Clontech, Calif.) vector and used as bait to screen the potato (S. tuberosum ‘Desireé’) stolon cDNA library in pAD-GAL4-2.1 (Stratagene, Calif.). Positive interactions were confirmed by cotransforming yeast strain AH109 with each purified pAD plasmid and pBridge: POTH1 and plating on -leucine/-tryptophan (transformation control) and -leucine/-tryptophan/-histidine/-adenine (selection) nutrient medium. Induction of the AH109 reporter gene, lacZ, was measured with a yeast β-galactosidase assay kit (Pierce Chemicals). β-galactosidase activity (FIG. 9B) was determined from a known density of yeast cells and calculated as 1000×OD420/time of color reaction (minutes)×volume of yeast culture (ml)×OD600.
POTH1, sequence (as listed by the source): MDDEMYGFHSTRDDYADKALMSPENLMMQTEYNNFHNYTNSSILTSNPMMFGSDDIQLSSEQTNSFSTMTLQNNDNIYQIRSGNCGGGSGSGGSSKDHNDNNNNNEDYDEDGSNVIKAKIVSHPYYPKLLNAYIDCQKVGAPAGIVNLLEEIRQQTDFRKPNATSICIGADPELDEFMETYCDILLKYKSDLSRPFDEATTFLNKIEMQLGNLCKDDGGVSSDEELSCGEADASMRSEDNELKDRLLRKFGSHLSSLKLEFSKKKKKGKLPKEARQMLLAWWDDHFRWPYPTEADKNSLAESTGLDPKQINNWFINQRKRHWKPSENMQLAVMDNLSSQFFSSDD
The StBEL-05 deletion constructs were amplified by PCR, then cloned into the vector, pGAD, in-frame with the GAL4 activation domain. POTH1 deletion constructs were amplified by PCR, and cloned into pBridge (Clontech) in-frame with the GAL4 binding domain. Sequencing of selected cDNAs and constructs was performed at the Iowa State University DNA Facility. For deletion analysis, modified constructs of POTH1 were cloned into the pBridge vector for fusion with the DNA-binding domain of GAL4 (FIG. 10A). For StBEL-05, constructs were cloned into the pGAD vector for fusion with the activating domain of GAL4 (FIG. 10B). Deletion constructs were made from both the amino and carboxy termini. These mutants were then tested for interaction in the yeast two-hybrid system by cotransforming into yeast strain AH109 with the corresponding full-length partner (StBEL-05 in pGAL4 or POTH1 in pBridge). All constructs were sequenced to verify that they were in-frame. Positive interactions were verified for lacZ induction by using a β-galactosidase assay (Pierce Chemical Company). For POTH1, seven deletion constructs were tested (FIG. 10A). For the BEL TFs, a fusion construct of StBEL-05 (653 aa of StBEL-05 sequence) and nine deletion constructs were tested (FIG. 10B).

B1: StBEL-05 protein from pGEM11Z (in vitro transcription/translation) (other)
chain: MYYQGTSDNTNIQADHQQRHNHGNSNNNNIQTLYLMNPNNYMQGYTTSDTQQQQQLLFLNSSPAASNALCHANIQHAPLQQQHFVGVPLPAVSLHDQINHHGLLQRMWNNQDQSQQVIVPSSTGVSATSCGGITTDLASQLAFQRPIPTPQHRQQQQQQGGLSLSLSPQLQQQISFNNNISSSSPRTNNVTIRGTLDGSSSNMVLGSKYLKAAQELLDEVVNIVGKSIKGDDQKKDNSMNKESMPLASDVNTNSSGGGESSSRQKNEVAVELTTAQRQELQMKKAKLLAMLEEVEQRYRQYHHQMQIIVLSFEQVAGIGSAKSYTQLALHAISKQFRCLKDAIAEQVKATSKSLGEEEGLGGKIEGSRLKFVDHHLRQQRALQQIGMMQPNAWRPQRGLPERAVSVLRAWLFEHFLHPYPKDSDKIMLAKQTGLTRSQVSNWFINARVRLWKPMVEEMYLEEVKNQEQNSTNTSGDNKNKETNISAPNEEKHPIITSSLLQDGITTTQAEISTSTISTSPTAGASLHHAHNFSFLGSFNMDNTTTTVDHIENNAKKQRNDMHKFSPSSILSSVDMEAKARESSNKGFTNPLMAAYAMGDFGRFDPHDQQMTANFHGNNGVSLTLGLPPSENLAMPVSQQNYLSNDLGSRSEMGSHYNRMGYENIDFQSGNKRFPTQLLPDFVTGNLGT
notes: 35S-methionine labelled prey; also called p11Z-5
For the molecule B1, the “relative GUS-LUC activity of the pGAOP::GUS reporter construct” value in the assay on ga20ox1 promoter (co-transfected effector, reporter alone = 100%) is recorded as “decreased by more than half”. In addition, the “repression of promoter activity, reporter with point mutation in the binding site” value in the assay on ga20ox1 promoter (mutated ga20ox1 promoter) is “no detectable repression”. In the assay on POTH1, the “interaction with POTH1” value is “showed selective interaction”.
